How the values were obtained:
[1] = molecular target: truncated FcRH5 (deletion of amino acids 1-744) with N-terminal gD tag, on cells (human) (UniProt Q96RD9); experiment: cell-based or functional assay
[2] = molecular target: T1, human FcRH5 protein fragment (soluble) (human, UniProt Q96RD9 16-851); experiment: BIACORE
T1 construct: whole entry named; also called soluble human FcRH5; Human FcRH5 (BIACORE analyte)
T1 sequence: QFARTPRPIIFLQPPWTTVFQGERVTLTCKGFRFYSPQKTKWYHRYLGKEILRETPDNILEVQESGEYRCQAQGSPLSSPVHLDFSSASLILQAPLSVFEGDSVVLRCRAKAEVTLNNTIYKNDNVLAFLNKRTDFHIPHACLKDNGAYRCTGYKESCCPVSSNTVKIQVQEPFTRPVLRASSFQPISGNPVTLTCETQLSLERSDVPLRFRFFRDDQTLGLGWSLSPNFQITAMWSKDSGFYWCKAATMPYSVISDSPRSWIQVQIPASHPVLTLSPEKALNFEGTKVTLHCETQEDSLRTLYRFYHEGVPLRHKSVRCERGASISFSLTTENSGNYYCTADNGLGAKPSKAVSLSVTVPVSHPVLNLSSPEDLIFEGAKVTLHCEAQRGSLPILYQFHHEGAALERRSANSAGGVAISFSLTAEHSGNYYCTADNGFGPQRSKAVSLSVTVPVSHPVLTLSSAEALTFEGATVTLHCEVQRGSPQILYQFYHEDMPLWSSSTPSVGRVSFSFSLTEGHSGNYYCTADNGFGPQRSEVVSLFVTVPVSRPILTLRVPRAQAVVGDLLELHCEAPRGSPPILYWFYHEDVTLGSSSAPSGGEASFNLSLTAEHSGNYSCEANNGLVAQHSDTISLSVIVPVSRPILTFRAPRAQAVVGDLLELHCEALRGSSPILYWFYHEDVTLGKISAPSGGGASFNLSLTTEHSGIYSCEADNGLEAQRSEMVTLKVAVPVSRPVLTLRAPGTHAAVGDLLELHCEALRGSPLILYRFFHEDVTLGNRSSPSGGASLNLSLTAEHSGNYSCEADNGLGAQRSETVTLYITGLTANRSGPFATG

[3] = molecular target: T2, cynomolgus FcRH5 protein fragment (soluble) (cynomolgus monkey); experiment: BIACORE
T2 construct: whole entry named; also called Cyno FcRH5 (BIACORE analyte)
T2 chain: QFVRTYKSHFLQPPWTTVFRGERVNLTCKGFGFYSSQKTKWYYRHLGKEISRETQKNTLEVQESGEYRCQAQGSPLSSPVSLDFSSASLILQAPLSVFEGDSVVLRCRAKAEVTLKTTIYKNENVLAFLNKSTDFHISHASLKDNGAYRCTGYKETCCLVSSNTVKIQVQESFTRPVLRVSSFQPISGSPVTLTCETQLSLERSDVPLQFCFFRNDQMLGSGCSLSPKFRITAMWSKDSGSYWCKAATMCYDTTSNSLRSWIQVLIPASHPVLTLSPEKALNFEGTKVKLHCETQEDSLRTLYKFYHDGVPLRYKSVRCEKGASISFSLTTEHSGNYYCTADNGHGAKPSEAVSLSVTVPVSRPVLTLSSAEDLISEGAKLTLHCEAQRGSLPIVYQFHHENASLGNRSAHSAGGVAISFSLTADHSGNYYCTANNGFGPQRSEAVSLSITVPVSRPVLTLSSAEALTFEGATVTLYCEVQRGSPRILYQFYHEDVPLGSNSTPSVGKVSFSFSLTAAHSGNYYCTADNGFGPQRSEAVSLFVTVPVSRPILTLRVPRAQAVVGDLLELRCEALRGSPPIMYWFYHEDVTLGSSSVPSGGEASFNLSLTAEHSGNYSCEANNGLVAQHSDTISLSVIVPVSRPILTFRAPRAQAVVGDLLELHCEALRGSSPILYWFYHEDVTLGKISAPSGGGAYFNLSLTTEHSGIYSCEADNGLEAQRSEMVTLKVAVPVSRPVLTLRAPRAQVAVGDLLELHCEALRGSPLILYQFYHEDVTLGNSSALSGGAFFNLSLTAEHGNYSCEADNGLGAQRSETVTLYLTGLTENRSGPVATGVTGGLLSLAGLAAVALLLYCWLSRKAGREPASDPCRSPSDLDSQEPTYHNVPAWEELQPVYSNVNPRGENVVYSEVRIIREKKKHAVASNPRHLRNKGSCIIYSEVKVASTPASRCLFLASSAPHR

[4] = molecular target: T1, human FcRH5 protein fragment (soluble); experiment: SPR (BIACORE), Human FcRH5, 1:1 binding model
[5] = molecular target: T2, cynomolgus FcRH5 protein fragment …; experiment: SPR (BIACORE), Cyno FcRH5, 1:1 binding model
[6] = molecular target: T3, human CD3ε (human, UniProt P07766 23-126, limits assumed); experiment: assay not stated
T3 construct: also called hCD3ε
T3 sequence (P07766 23-126 limits assumed): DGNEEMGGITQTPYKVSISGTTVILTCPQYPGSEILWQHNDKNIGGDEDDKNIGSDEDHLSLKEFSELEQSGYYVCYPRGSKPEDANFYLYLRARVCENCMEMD

[7] = molecular target: T3, human CD3ε; experiment: BIACORE, monovalent
[8] = molecular target: T1, human FcRH5 protein fragment (soluble); experiment: SPR screening
[9] = molecular target: T1, human FcRH5 protein fragment (soluble); experiment: SPR (BIACORE), antibody as ligand, HuFcRH5 as sample in stepwise injections, 25 °C, 1:1 binding model
[10] = molecular target: T3, human CD3ε; experiment: BIACORE and Scatchard, monovalent

**Q.** With “anti-gD/UCHT1.v9 TDB (bispecific antibody)” as the molecule, how does the target cell killing with the truncated FcRH5 construct, EC50 [1] read?
**A.** The target cell killing with the truncated FcRH5 construct, EC50 was 0.19 nM.

B1: hu1G7.v93/38E4.v1 TDB (bispecific antibody, V domains shown)
VH 1: EVQLVESGPGLVKPSETLSLTCTVSGFSTTRFGVHWVRQPPGKGLEWLGVIWRGGSTDYNAAFVSRLTISKDNSKNQVSLKLSSVTAADTAVYYCSNHYYGSPDYALDNWGQGTLVTVSS
VL 1: DIQMTQSPSSLSASVGDRVTITCKASQDVSNLVVWFQQKPGKAPKLLIYSGSYRYSGVPSRFSGSGSGTDFTLTISSLQPEDFATYYCQQHYSPPYTFGQGTKVEIK
VH 2: EVQLVQSGAEVKKPGASVKVSCKASGFTFTSYYIHWVRQAPGQGLEWIGWIYPENDNTKYNEKFKDRVTITADTSTSTAYLELSSLRSEDTAVYYCARDGYSRYYFDYWGQGTLVTVSS
VL 2: DIVMTQSPDSLAVSLGERATINCKSSQSLLNSRTRKNYLAWYQQKPGQSPKLLIYWTSTRKSGVPDRFSGSGSGTDFTLTISSLQAEDVAVYYCKQSFILRTFGQGTKVEIK
notes: knob-into-hole TDB; also called 1G7.v93 TDB
**Q.** B1 was tested. Which Kd [2] did it give?
**A.** The Kd was 1.1 nM.

**Q.** What about the Kd [3] of the same molecule?
**A.** Its Kd is 8.1 nM.

**Q.** What about the koff [4] of the same molecule?
**A.** The koff was 0.000421 s⁻¹.

**Q.** What about the kon [4] of the same molecule?
**A.** Its kon is 395000 M⁻¹ s⁻¹.

**Q.** What about the Kd [5] of the same molecule?
**A.** Its Kd is 8.08 nM.

**Q.** What about the koff [5] of the same molecule?
**A.** The koff was 0.000417 s⁻¹.

**Q.** What about the kon [5] of the same molecule?
**A.** Its kon is 51600 M⁻¹ s⁻¹.

B2: 40G5c (antibody, V domains shown)
VH: EVQLVQSGAEVKKPGASVKVSCKASGYTFTNYYIHWVRQAPGQGLEWIGWIYPGDGNTKYNEKFKGRATLTADTSTSTAYLELSSLRSEDTAVYYCARDSYSNYYFDYWGQGTLVTVSS
VL: DIVMTQSPDSLAVSLGERATINCKSSQSLLNSRTRKNYLAWYQQKPGQPPKLLIYWASTRESGVPDRFSGSGSGTDFTLTISSLQAEDVAVYYCTQSFILRTFGQGTKVEIK
notes: humanized anti-CD3ε; also called hu40G5c
**Q.** For B2, which EC50 [6] is on record?
**A.** The EC50 was 13 nM.

**Q.** What about the Kd [7] of the same molecule?
**A.** Its Kd is 51 nM.

B3: 38E4.v1 (antibody, V domains shown)
VH: EVQLVQSGAEVKKPGASVKVSCKASGFTFTSYYIHWVRQAPGQGLEWIGWIYPENDNTKYNEKFKDRVTITADTSTSTAYLELSSLRSEDTAVYYCARDGYSRYYFDYWGQGTLVTVSS
VL: DIVMTQSPDSLAVSLGERATINCKSSQSLLNSRTRKNYLAWYQQKPGQSPKLLIYWTSTRKSGVPDRFSGSGSGTDFTLTISSLQAEDVAVYYCKQSFILRTFGQGTKVEIK
notes: humanized anti-CD3ε; also called anti-CD3 arm 38E4.v1
**Q.** What does the source list for B3?
**A.** EC50 [6]: 1 nM; Kd [7]: 0.5 nM

B4: hu1G7.v1 with heavy chain L29T and S56T (antibody, V domains shown)
VH: EVQLVESGPGLVKPSETLSLTCTVSGFSTTRFGVHWVRQPPGKGLEWLGVIWRGGTTDYNAAFMSRLTISKDNSKNQVSLKLSSVTAADTAVYYCSNHYYGSSDYALDNWGQGTLVTVSS
VL: DIQMTQSPSSLSASVGDRVTITCKASQDVSNIVVWFQQKPGKSPKLLIYSASYRYTGVPSRFSGSGSGTDFTLTISSLQPEDFATYYCQQHYSSPYTFGQGTKVEIK
notes: also called L29T/S56T double mutant
**Q.** Which “average fold improvement in affinity” value [8] does the source give for B4 here?
**A.** The value was 1.2 fold.

B5: h7D8.L1H2 (antibody)
heavy chain: EVQLVESGGGLVQPGGSLRLSCAVSGIDLSSYAMGWVRQAPGKGLEWIGTIGTGGTPYYASWAKGRFTISKDSSKNTVYLQMNSLRAEDTAVYFCARDMYTGSIYYDMWGQGTLVTVSS
light chain: DAQLTQSPSSLSASVGDRVTITCQSSQSVFNNAQLSWYQQKPGKPPKLLIYDTSNLASGVPSRFSGSGSGTDFTLTISSLQPEDFATYYCLGAYTDDADNAFGQGTKVEIK
notes: humanized, rabbit-derived anti-FcRH5 antibody; The sheet prints h7D8.L1H2* with an unexplained asterisk; also called hu7D8.L1H2; Hu7D8.L1H2
**Q.** Which koff [9] does the source give for B5 here?
**A.** Its koff is 0.00136 s⁻¹.

**Q.** And the kon [9]?
**A.** The kon was 1.08e+06 M⁻¹ s⁻¹.

B6: UCHT1.v9 (antibody, V domains shown)
VH: EVQLVESGGGLVQPGGSLRLSCAASGYSFTGYTMNWVRQAPGKDLEWVALINPYKGVSTYNQKFKDRFTISVDKSKNTAYLQMNSLRAEDTAVYYCARSGYYGDSDWYFDVWGQGTLVTVSS
VL: DIQMTQSPSSLSASVGDRVTITCRASQDIRNYLNWYQQKPGKAPKLLIYYTSRLESGVPSRFSGSGSGTDYTLTISSLQPEDFATYYCQQGNTLPWTFGQGTKLELK
notes: humanized anti-CD3; also called huUCHT1.v9
**Q.** For B6, which Kd [10] is on record?
**A.** The Kd was 2.5 nM.

Reference: US20240383984A1 (Genentech, published 2024)
